Publication doi:10.1101/2021.06.01.446590

Legend:
[1] = biological target: human parkin, full-length (human) (UniProt O60260); assay: ITC
[2] = biological target: parkin/pUb (UniProt O60260); assay: ITC
Sequence of parkin/pUb (O60260 whole entry, chain 1 of 2): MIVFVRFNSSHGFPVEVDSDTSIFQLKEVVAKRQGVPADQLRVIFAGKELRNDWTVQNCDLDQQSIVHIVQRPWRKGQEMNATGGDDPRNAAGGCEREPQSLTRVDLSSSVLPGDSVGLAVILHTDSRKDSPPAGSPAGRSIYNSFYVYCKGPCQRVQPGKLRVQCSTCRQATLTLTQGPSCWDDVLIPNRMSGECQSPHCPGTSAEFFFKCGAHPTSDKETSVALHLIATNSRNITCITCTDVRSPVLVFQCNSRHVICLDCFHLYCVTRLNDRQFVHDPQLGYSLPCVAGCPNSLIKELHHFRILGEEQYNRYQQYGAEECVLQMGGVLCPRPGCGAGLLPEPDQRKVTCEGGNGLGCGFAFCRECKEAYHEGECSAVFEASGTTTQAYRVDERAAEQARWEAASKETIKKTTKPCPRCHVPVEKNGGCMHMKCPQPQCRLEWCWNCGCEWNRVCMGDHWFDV
Sequence of parkin/pUb (P0CG63 1-76, chain 2 of 2, further chain): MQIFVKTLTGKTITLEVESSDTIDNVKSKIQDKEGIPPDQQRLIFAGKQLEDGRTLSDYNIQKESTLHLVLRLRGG

Sequence of human parkin, full-length (human) (O60260 whole entry): as the sequence (O60260 whole entry, chain 1 of 2) above
Sequence of UbcH7~Ub (P68036 whole entry): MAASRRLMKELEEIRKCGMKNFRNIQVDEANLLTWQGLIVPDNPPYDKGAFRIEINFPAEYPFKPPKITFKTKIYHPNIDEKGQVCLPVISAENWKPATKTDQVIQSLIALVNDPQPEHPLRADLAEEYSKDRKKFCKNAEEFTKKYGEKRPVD
Sequence of UbcH7~Ub (P0CG63 1-76): as the sequence (P0CG63 1-76, chain 2 of 2, further chain) above

“CISD1-pUb (CISD1-Ub phosphorylated at S65 of Ub by PINK1) (from UniProt Q9NZ45 32-108; P0CG63 1-76)” was tested, and the Kd [1] was 428 nM.
“UbcH7~Ub (from UniProt P68036 1-154; P0CG63 1-76) (complex)” was tested, and the Kd [2] was 40000 nM.
Work on “mG2^T-pUb (mG2^T-Ub phosphorylated at S65 of Ub by PINK1) (from UniProt Q8IXI2 402-582; P0CG63 1-76)” yielded a Kd [1] of 894 nM.
